The values below come from article PMC10400651, “Gain-of-function mutant p53 together with ERG proto-oncogene drive prostate cancer by beta-catenin activation and pyrimidine synthesis”.

The data set deals with p53 WT (UniProt P04637 1-393). Briefly: EMSA; Thermo EMSA kit (20148) protocol; 6% native PAGE; supershift with 1 ug anti-p53 for 1 h at room temperature; recombinant p53 eluted in PBS; buffer, salt and pH. The conditions noted are these: protein: recombinant; tags: untagged after thrombin cleavage of GST; chain copies: 4; label: biotin; blunt. For orientation: A gel shift assay detects complexes by their altered migration in electrophoresis.
p53 WT, sequence (P04637 whole entry): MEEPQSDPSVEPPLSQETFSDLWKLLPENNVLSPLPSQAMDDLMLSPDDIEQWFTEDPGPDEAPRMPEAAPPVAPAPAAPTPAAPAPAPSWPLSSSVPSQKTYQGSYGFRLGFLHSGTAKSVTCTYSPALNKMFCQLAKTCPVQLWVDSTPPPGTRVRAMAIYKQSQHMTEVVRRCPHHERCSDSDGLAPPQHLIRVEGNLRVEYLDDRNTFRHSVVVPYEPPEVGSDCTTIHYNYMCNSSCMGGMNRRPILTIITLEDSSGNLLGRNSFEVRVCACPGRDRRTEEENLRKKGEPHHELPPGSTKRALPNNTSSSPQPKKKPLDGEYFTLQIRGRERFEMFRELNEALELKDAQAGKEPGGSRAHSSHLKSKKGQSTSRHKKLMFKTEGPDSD

B1: CTNNB1-probe1 (MP53BS) (dsDNA)
DNA 1: GCCCCCTCGCGCCCCGCCCCTTGTC
DNA 2: GACAAGGGGCGGGGCGCGAGGGGGC
As for B1, the binding result is “no binding”.
